The test concerns the target T1, GS-SplD, recombinant SplD protease containing the Gly-Ser dipeptide at the N-terminus (Staphylococcus aureus strain 8325-4) (UniProt Q2FXC5).
T1 sequence: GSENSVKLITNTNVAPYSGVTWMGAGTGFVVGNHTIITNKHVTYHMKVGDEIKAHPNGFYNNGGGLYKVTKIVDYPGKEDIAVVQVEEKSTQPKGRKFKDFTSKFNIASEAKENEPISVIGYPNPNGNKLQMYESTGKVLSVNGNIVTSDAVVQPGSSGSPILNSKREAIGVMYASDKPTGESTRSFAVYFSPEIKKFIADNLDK

2 molecules from publication PMC3793935 can be followed below.

The star is where a group is joined. NH(3-CONH2-4-NO2-Ph) = NC(=O)c1cc(N*)ccc1[N+](=O)[O-]

B1: ABZ-Trp-Leu-Thr-Ser-ANB-NH2 (peptide)
peptide: {ABZ}-WLTS-{NH(3-CONH2-4-NO2-Ph)-NH2}
On to B1, for which the Km of hydrolysis of the fluorescence-quenched peptide substrate by wild type SplD turned out to be 14.7 µM.

B2: ABZ-Trp-Leu-Val-Ser-ANB-NH2 (peptide)
peptide: {ABZ}-WLVS-{NH(3-CONH2-4-NO2-Ph)-NH2}
With B2, the Km of hydrolysis of the fluorescence-quenched peptide substrate by wild type SplD stood at 31.1 µM.
